Measurements published in publication doi:10.1101/2021.01.14.426634 (bioRxiv, 2021).
Several values for one entry are separate records, joined by “and”; a condition that tells them apart may be missing. Equal entries are not always repeated. Where two headings read alike, the source gives them in different places. Blank lines part the entries; values can stand above or below the molecule they belong to.

Columns and labels:
[1] = target: Danio rerio calcium hemostasis modulator 1 (drCALHM1), full length, purified channel (Danio rerio) (UniProt E7F2J4); assay: cryo-EM structure
[2] = target: Danio rerio calcium hemostasis modulator 1 (drCALHM1), full length, purified channel (Danio rerio) (UniProt E7F2J4); assay: cryo-EM structure; remark: listed apart in the source
[3] = target: Danio rerio calcium hemostasis modulator 1 (drCALHM1), full length, purified channel (Danio rerio) (UniProt E7F2J4); assay: cryo-EM structure; remark: listed apart in the source
cross-linking [4] = target: the molecule itself; assay: cross-linking
cross-linking [5] = target: the molecule itself; assay: cross-linking; remark: listed apart in the source

stoichiometry N [1]: 7 and 8 | stoichiometry N [2]: 7 | stoichiometry N [3]: 8
Molecule: Danio rerio calcium hemostasis modulator 1 (drCALHM1), full length, purified channel (from UniProt E7F2J4 1-346) (natural protein)

B1: Homo sapiens CALHM1 with a 2x FLAG tag at the C-terminus, expressed in HEK293T cells (natural protein, H. sapiens, UniProt Q8IU99 1-346, looked up)
chain: MMDKFRMIFQFLQSNQESFMNGICGIMALASAQMYSAFDFNCPCLPGYNAAYSAGILLAPPLVLFLLGLVMNNNVSMLAEEWKRPLGRRAKDPAVLRYMFCSMAQRALIAPVVWVAVTLLDGKCFLCAFCTAVPVSALGNGSLAPGLPAPELARLLARVPCPEIYDGDWLLAREVAVRYLRCISQALGWSFVLLTTLLAFVVRSVRPCFTQAAFLKSKYWSHYIDIERKLFDETCTEHAKAFAKVCIQQFFEAMNHDLELGHTHGTLATAPASAAAPTTPDGAEEEREKLRGITDQGTMNRLLTSWHKCKPPLRLGQEEPPLMGNGWAGGGPRPPRKEVATYFSKV
stoichiometry N (cross-linking [4]): 7 | stoichiometry N (cross-linking [5]): 8
